Measured values taken from patent US9279017B2.

Key:
[1] = molecular target: recombinant human GM-CSF (rhGM-CSF) (human) (UniProt P04141); assay: SPR (BIAcore), rhGM-CSF immobilised, analyte 116 nM
[2] = molecular target: recombinant human GM-CSF (rhGM-CSF) (human) (UniProt P04141); assay: SPR (BIAcore), rhGM-CSF immobilised, analyte 12.8 nM
[3] = molecular target: recombinant human GM-CSF (rhGM-CSF) (human) (UniProt P04141); assay: SPR (BIAcore), rhGM-CSF immobilised, analyte 1040 nM
[4] = molecular target: recombinant human GM-CSF (rhGM-CSF) (human) (UniProt P04141)
[5] = molecular target: recombinant human GM-CSF (rhGM-CSF) (human) (UniProt P04141); assay: SPR (BIAcore), rhGM-CSF immobilised, analyte 3120 nM
[6] = molecular target: recombinant human GM-CSF (rhGM-CSF) (human) (UniProt P04141); assay: SPR (BIAcore), rhGM-CSF immobilised, analyte 347 nM
[7] = molecular target: recombinant human GM-CSF (rhGM-CSF) (human) (UniProt P04141); assay: SPR (BIAcore), kinetic analysis, rhGM-CSF immobilised
[8] = molecular target: recombinant human GM-CSF (rhGM-CSF) (human) (UniProt P04141); assay: SPR (BIAcore), rhGM-CSF immobilised, analyte 38.5 nM

B1: half-human SCA B32oN-45 (scFv)
scFv: ELQLVEQSGAALVKPGDSVKMSCKASGYPFTDYIVHWVKQSHGKSLDWIGYINPYSGDTKFNEKFKSKATLTVDKSSSTAYMEFSRLTSEDSAIYYCARSGLIAVYFDYWGQGTTVTVSSGGGGSGGGGSGGGGSELVMTQSPSSVSASVGDRVTIACRASQNIRNILNWYQQRPGKAPQLLIYAASNLQSGVPSRFSGSGSGTDFTLTINSLQPEDFATYYCQQSYSMPRTFGGGTKVEIKTGDYKDDDDK
With B1 the Ka [1] was 1.66e+08 M⁻¹, the Kd [1] was 6.01 nM and the koff [1] was 0.00464 s⁻¹. It also gave a kon [1] of 772000 M⁻¹ s⁻¹, a Ka [2] of 3.25e+08 M⁻¹ and a Kd [2] of 3.07 nM. For the same binder, the koff [2] was 0.00384 s⁻¹, the kon [2] was 1.25e+06 M⁻¹ s⁻¹ and the Ka [3] was 1.89e+07 M⁻¹. For the same binder, the Kd [3] was 52.8 nM, the koff [3] was 0.0046 s⁻¹ and the kon [3] was 87100 M⁻¹ s⁻¹. The inhibition of rhGM-CSF dependent proliferation of TF-1 cells [4] was 6 nM, the Ka [5] was 1.06e+07 M⁻¹ and the Kd [5] was 94.6 nM. The koff [5] was 0.00514 s⁻¹, the kon [5] was 54300 M⁻¹ s⁻¹ and the Ka [6] was 9.22e+07 M⁻¹. It also gave a Kd [6] of 10.8 nM, a koff [6] of 0.00477 s⁻¹ and a kon [6] of 440000 M⁻¹ s⁻¹. For the same binder, the Kd [7] was 50 nM, the Ka [8] was 2.2e+08 M⁻¹ and the Kd [8] was 4.55 nM. The koff [8] was 0.00444 s⁻¹ and the kon [8] was 975000 M⁻¹ s⁻¹.
